Assay results as given in article PMC3045386, “Insights into the Function of the CRM1 Cofactor RanBP3 from the Structure of Its Ran-Binding Domain” (PLoS ONE, 2011).

B1: RanBP3 RBD (residues 310–454) (domain or fragment)
chain: KATARKCLLEKVEVITGEEAESNVLQMQCKLFVFDKTSQSWVERGRGLLRLNDMASTDDGTLQSRLVMRTQGSLRLILNTKLWAQMQIDKASEKSIRITAMDTEDQGVKVFLISASSKDTGQLYAALHHRILALRSRVEQEQEAK
B2: Human full-length RanBP3 (residues 1–499; isoform B) (natural protein)
chain: MADLANEEKPAIAPPVFVFQKDKGQKRSAGGSSPEGGEDSDREDGNYCPPVKRERTSSLTQFPPSQSEERSSGFRLKPPTLIHGQAPSAGLPSQKPKEQQRSVLRPAVLQAPQPKALSQTVPSSGTNGVSLPADCTGAVPAASPDTAAWRSPSEAADEVCALEEKEPQKNESSNASEEEACEKKDPATQQAFVFGQNLRDRVKLINESVDEADMENAGHPSADTPTATNYFLQYISSSLENSTNSADASSNKFVFGQNMSERVLSPPKLNEVSSDANRENAAAESGSESSSQEATPEKESLAESAAAYTKATARKCLLEKVEVITGEEAESNVLQMQCKLFVFDKTSQSWVERGRGLLRLNDMASTDDGTLQSRLVMRTQGSLRLILNTKLWAQMQIDKASEKSIRITAMDTEDQGVKVFLISASSKDTGQLYAALHHRILALRSRVEQEQEAKMPAPEPGAAPSNEEDDSDDDDVLAPSGATAAGAGDEGDGQTTGST

Tests used:
RanQ69L:GTP [1] = target: T1, RanQ69L:GTP (human, UniProt P62826 1-216, Q69L); test: ITC; 800 µM RanBP3 RBD (residues 310–454) titrated into 70 µM RanQ69L:GTP; 25°C; 300 mM NaCl, 5 mM MgCl2, 10 mM TRIS pH 7.4; single-site binding model; Kd,obs; details: both partners purified
RanQ69L:GTP [2] = target: T1, RanQ69L:GTP; test: ITC; 530 µM RanQ69L:GTP titrated into 48 µM full-length RanBP3; 25°C; 300 mM NaCl, 5 mM MgCl2, 10 mM TRIS pH 7.4; single-site binding model; Kd,obs; details: both partners purified

Binder	Kd (RanQ69L:GTP [1]) [µM]	stoichiometry N (RanQ69L:GTP [1])	Kd (RanQ69L:GTP [2]) [µM]
B1	14 ± 0.3	0.93 ± 0.01	–
B2	–	–	15 ± 3
